Entries after “also recorded” stand apart in the source; their conditions may differ.
How the values were obtained:
podocyte monolayer = assay: Albumin permeability across differentiated podocyte monolayer (Transwell); type: cell-based, mouse; settings: adiponectin (globular or full length) 3 μg/ml, serum free, vs. control
Procedure: Podocyte cell culture: Conditionally immortalized mouse podocytes were kindly provided by Dr. Peter Mundel (Albert Einstein College of Medicine, Bronx, N.Y.) and were cultured as previously described (27). The cells harbor a temperature-sensitive variant of the SV40 large T antigen (tsA58) that is inducible by γ-interferon and stable at 33° C. but rapidly degraded at 37° C. (27). At 33° C., the large T antigen allows for cellular proliferation. The proliferating cells are maintained in collagen I—coated flasks in RPMI-1640 media supplemented with 10% FBS and 10 units/ml mouse recombinant γ-interferon. When the cells have reached confluence, they are passaged and allowed to differentiate at 37° C. for 8-10 days without γ-interferon in Dulbecco's modified Eagle's medium containing 5.5 mmol/l glucose and 5% FCS. For the permeability assay a modification of a previously published protocol (28) was adopted. Differentiated podocytes (0.2×10^6 podocytes/well) plated on collagen coated 24 well Transwell plates (Corning) were serum-starved ovenight when confluent. Cells were then modulated with globular adiponectin (PepROTech Inc.) with or without 1 mM adenosine 9-p-D-arabinofuranoside (ARA-A) (Sigma, St. Louis, Mo.), for 24 h. Cells were then washed twice with PBS supplemented with 1 mM MgCl2 and 1 mM CaCl2. The upper compartment was refilled with 0.25 ml RPMI 1640 alone and the lower compartment with 0.5 ml RPMI 1640 supplemented with 40 mg/ml BSA and incubated for 2 hour at 37° C. Total protein concentration in the upper compartment was determined using a Bio-Rad protein assay (Bio-Rad Laboratories, Hercules, Calif.).

[1] = system: Adiponectin KO (Ad−/−) mice; assay: Urine albumin/creatinine ratio in treated adiponectin KO mice; type: in vivo, mouse; settings: AdKO mice at 4 months of age; gAd 25 μg twice daily for 10 days (gAd or fAd)
Procedure: Adiponectin administration and animal studies: The mice were treated with 25 μg of recombinant human globular domain adiponectin (gAd; PepROTech, Rocky Hill, N.J.) subcutaneously twice daily for 10 consecutive days. The control animals were given PBS alone. 24-hour urines from each mouse were collected twice: one week before the injections and on the last day of the injections. The urine albumin and creatinine were measured with a mouse Albuwell ELISA kit and a Creatinine Companion kit (Exocell, Philadelphia, Pa.) (25,26). The mice were sacrificed five hours after the final gAd injection under anesthesia. Portions of kidney cortex were fixed in buffered formalin and embedded in paraffin. A portion of kidney cortical tissue was cut into 1 mm^3 pieces and fixed in 2.5% glutaraldehyde
Interventional animal studies: The mice were treated with 25 μg of recombinant human globular domain adiponectin gAd (PepROTech, Rocky Hill, N.J.), administered 25 μg/mouse twice a day for 10 consecutive days or full-length adiponectin (fAd) was administered using an AAV vector (AAV2/8 CMV fAd virus 4×1011 GC/mouse for 10 days). A separate group of Ad−/− mice were treated with 5-aminoimidazole-4-carboxamide-1-beta-D-ribonucleoside (AICAR) with a single i.p. dose of 300 mg/kg. The control animals were given PBS alone or control AAV. 24-hour urines from each mouse were collected before treatment and on the last day of the treatment period. The urine albumin and creatinine were measured with a mouse Albuwell ELISA kit and a Creatinine Companion kit (Exocell, Philadelphia, Pa.) (26, 25). As an index of oxidant stress timed urine collections were also analyzed for hydrogen peroxide by Amplex red assay (Invitrogen/Molecular Probes, Carlsbad, Calif.) following the manufacturer's protocol. Portions of liver, muscle and kidney was snap-frozen in liquid nitrogen for RNA isolation. An additional aliquot of normal kidney was frozen in OCT for immunofluorescent staining. […]

AMPK = assay: Glomerular AMPK activity (p-AMPKα immunostain) in adiponectin KO mouse kidney; type: in vivo; settings: adiponectin KO mice, adiponectin (gAd) treatment
Procedure: Immunohistochemistry: Immunocytochemistry was performed as described previously (30). Differentiated podocytes seeded on coverslips were serum-Starved overnight and globular adiponectin was added. After 24 hours of adiponectin introduction, cells were fixed in 3.7% paraformaldehyde. Incubation with primary antibody p-AMPKα at 1:50 dilution (Cell Signaling Technology) was performed in blocking solution at 4° C. overnight Cells were then incubated with secondary anti rabbit IgG conjugated to an immunofluorescent dye (Alexa 594, Invitrogen, Carisbad, Calif.) for 30 minutes at room temperature. Nuclear stain was performed with Hoechst 33342 (Invitrogen). Fluorescence pictures were obtained using confocal laser fluorescence microscope (LSM-510, Carl Zeiss, Jena, Germany). Immunostaining of paraffin-embedded mouse kidney was performed as described previously (26) with p-AMPKα (Thr172) rabbit monoclonal antibody (31). Quantitation of p-AMPKα positive cells was performed on 50 glomeruli from 4 mice in each group.
Immunohistochemistry: Immunocytochemistry was performed as described previously (30). […] Fluorescence pictures were obtained using confocal laser fluorescence microscope (LSM-510, Carl Zeiss, Jena, Germany). […] Quantitation of p-AMPKa positive cells was performed on 50 glomeruli from 4 mice in each group. […] Images were captured by confocal laser fluorescence microscope.

B1: adiponectin: 30 kDa adipocyte-secreted protein; in the first series of tests the recombinant globular domain was used, later gAd or fAd (protein, UniProt Q15848 19-244, looked up)
Adiponectin: ETTTQGPGVLLPLPKGACTGWMAGIPGHPGHNGAPGRDGRDGTPGEKGEKGDPGLIGPKGDIGETGVPGAEGPRGFPGIQGRKGEPGEGAYVYRSAFSVGLETYVTIPNMPIRFTKIFYNQQNHYDGSTGKFHCNIPGLYYFAYHITVYMKDVKVSLFKKDKAMLFTYDQYQENNVDQASGSVLLHLEVGDQVWLQVYGEGERNGLYADNDNDSTFTGFLLYHDTN
Permeability of albumin across a podocyte monolayer (podocyte monolayer): reduced
Urine albumin/creatinine ratio (albuminuria) [1]: normalized albuminuria levels; also recorded: restores normal albuminuria
AMPK activity in glomerular podocytes (p-AMPKα positive cells per glomerulus) (AMPK): improved; also recorded: increased
